B1: RHOBTB2 (parent)
chain: LYTGELDENERDLMHIAHIAELLE
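Also: lentivirally expressed fusions sorted by FACS into six bins by GFP to DsRed ratio, PSI derived from sequencing read proportions per bin multiplied by bin number.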

In this series the parent is B1. In words: protein stability index of a GFP-peptide fusion (GPS, HEK-293T) (PSI 1-6); higher = more stable. The note with it: c terminus: a fixed tail appended.
In the case of LYTGELDENERDLMAIAHIAELLE [H15A], the protein stability index was found to be 1.74.

Take LYTGELDENERDLMPIAHIAELLE [H15P]: the protein stability index was determined as 3.23.

With LYTGELDENERDLMIIAHIAELLE [H15I], the protein stability index worked out at 1.93.

As for LYTGELDENERDLMQIAHIAELLE [H15Q], the protein stability index was found to be 2.4.

On to LYTGELDENERDLMTIAHIAELLE [H15T], for which the protein stability index was 1.53.

For the variant LYTGELDENERDLMLIAHIAELLE [H15L], the protein stability index came to 1.5.

Regarding LYTGELDENERDLMNIAHIAELLE [H15N], the protein stability index was 2.63.

On to LYTGELDENERDLMDIAHIAELLE [H15D], for which the protein stability index was 3.36.

As to GYTGELDENERDLMHIAHIAELLE [L1G], the protein stability index came to 2.53.

DYTGELDENERDLMHIAHIAELLE [L1D]: the protein stability index is 3.08.

Regarding PYTGELDENERDLMHIAHIAELLE [L1P], the protein stability index is 2.92.

In the case of HYTGELDENERDLMHIAHIAELLE [L1H], the protein stability index stood at 2.61.

Consider VYTGELDENERDLMHIAHIAELLE [L1V], for which the protein stability index is 2.8.

Take TYTGELDENERDLMHIAHIAELLE [L1T]: the protein stability index was 2.1.

Turning to MYTGELDENERDLMHIAHIAELLE [L1M], the protein stability index turned out to be 2.72.

Regarding YYTGELDENERDLMHIAHIAELLE [L1Y], the protein stability index came to 2.78.

On to LYTGELDENERDLMHIAHIAFLLE [E21F], for which the protein stability index came to 1.74.

For the variant LYTGELDENERDLMHIAHIAGLLE [E21G], the protein stability index was 1.92.

In the case of LYTGELDENERDLMHIAHIAYLLE [E21Y], the protein stability index came to 1.76.

Regarding LYTGELDENERDLMHIAHIAMLLE [E21M], the protein stability index was 2.12.

As for LYTGELDENERDLMHIAHIALLLE [E21L], the protein stability index came to 1.92.

As for LYTGELDENERDLMHIAHIAHLLE [E21H], the protein stability index is 1.8.

LYTGELDENERDLMHIAHIAVLLE [E21V]: the protein stability index came out at 1.04.

Turning to LYTGELDENERDLMHIAHIAPLLE [E21P], the protein stability index is 3.3.

Regarding LYTGELDENNRDLMHIAHIAELLE [E10N], the protein stability index stood at 2.83.

Turning to LYTGELDENIRDLMHIAHIAELLE [E10I], the protein stability index stood at 2.26.

In the case of LYTGELDENSRDLMHIAHIAELLE [E10S], the protein stability index was determined as 1.98.

For the variant LYTGELDENARDLMHIAHIAELLE [E10A], the protein stability index was found to be 2.58.

For LYTGELDENYRDLMHIAHIAELLE [E10Y], the protein stability index was found to be 1.95.

Regarding LYTGELDENCRDLMHIAHIAELLE [E10C], the protein stability index turned out to be 2.6.

As to LYTGELDENDRDLMHIAHIAELLE [E10D], the protein stability index was 2.87.

Consider LYTGELDENFRDLMHIAHIAELLE [E10F], for which the protein stability index was 2.53.

On to LYQGELDENERDLMHIAHIAELLE [T3Q], for which the protein stability index turned out to be 2.58.

In the case of LYRGELDENERDLMHIAHIAELLE [T3R], the protein stability index was determined as 1.98.

For LYWGELDENERDLMHIAHIAELLE [T3W], the protein stability index is 1.54.

In the case of LYFGELDENERDLMHIAHIAELLE [T3F], the protein stability index stood at 3.07.

Turning to LYCGELDENERDLMHIAHIAELLE [T3C], the protein stability index amounted to 2.31.

As for LYKGELDENERDLMHIAHIAELLE [T3K], the protein stability index amounted to 2.16.

As for LYIGELDENERDLMHIAHIAELLE [T3I], the protein stability index stood at 2.15.

As for LYTGEVDENERDLMHIAHIAELLE [L6V], the protein stability index was 2.38.

Take LYTGEQDENERDLMHIAHIAELLE [L6Q]: the protein stability index is 3.86.

Consider LYTGEHDENERDLMHIAHIAELLE [L6H], for which the protein stability index amounted to 2.96.

Regarding LYTGEEDENERDLMHIAHIAELLE [L6E], the protein stability index came to 3.4.

As for LYTGESDENERDLMHIAHIAELLE [L6S], the protein stability index came to 2.81.

Turning to LYTGERDENERDLMHIAHIAELLE [L6R], the protein stability index amounted to 2.79.

LYTGETDENERDLMHIAHIAELLE [L6T]: the protein stability index came to 3.57.

Turning to LYTGENDENERDLMHIAHIAELLE [L6N], the protein stability index turned out to be 3.49.

In the case of LYTGELDENERDLMHFAHIAELLE [I16F], the protein stability index stood at 2.71.

Take LYTGELDENERDLMHQAHIAELLE [I16Q]: the protein stability index was 3.87.

Regarding LYTGELDENERDLMHNAHIAELLE [I16N], the protein stability index was 3.54.

On to LYTGELDENERDLMHYAHIAELLE [I16Y], for which the protein stability index was 2.93.

Consider LYTGELDENERDLMHTAHIAELLE [I16T], for which the protein stability index was 3.62.

For LYTGELDENERDLMHCAHIAELLE [I16C], the protein stability index came to 3.77.

For the variant LYTGELDENERDLMHHAHIAELLE [I16H], the protein stability index was 3.76.

Regarding LPTGELDENERDLMHIAHIAELLE [Y2P], the protein stability index turned out to be 3.2.

As for LTTGELDENERDLMHIAHIAELLE [Y2T], the protein stability index worked out at 3.44.

For the variant LWTGELDENERDLMHIAHIAELLE [Y2W], the protein stability index worked out at 1.69.

Take LNTGELDENERDLMHIAHIAELLE [Y2N]: the protein stability index came to 3.17.

LKTGELDENERDLMHIAHIAELLE [Y2K]: the protein stability index was determined as 2.74.

For the variant LGTGELDENERDLMHIAHIAELLE [Y2G], the protein stability index turned out to be 3.25.

Regarding LLTGELDENERDLMHIAHIAELLE [Y2L], the protein stability index came out at 2.37.

As to LHTGELDENERDLMHIAHIAELLE [Y2H], the protein stability index came out at 3.8.

For LYTGELDENENDLMHIAHIAELLE [R11N], the protein stability index amounted to 2.1.

Regarding LYTGELDENEWDLMHIAHIAELLE [R11W], the protein stability index came to 2.04.

Regarding LYTGELDENELDLMHIAHIAELLE [R11L], the protein stability index worked out at 1.77.

For the variant LYTGELDENEPDLMHIAHIAELLE [R11P], the protein stability index stood at 2.67.

On to LYTGELDENEHDLMHIAHIAELLE [R11H], for which the protein stability index came to 2.39.

Turning to LYTGELDENEVDLMHIAHIAELLE [R11V], the protein stability index was found to be 2.04.

As to LYTGELDENERDIMHIAHIAELLE [L13I], the protein stability index is 2.38.

As to LYTGELDENERDQMHIAHIAELLE [L13Q], the protein stability index turned out to be 3.29.

With LYTGELDENERDGMHIAHIAELLE [L13G], the protein stability index was 3.74.

LYTGELDENERDPMHIAHIAELLE [L13P]: the protein stability index stood at 4.82.

In the case of LYTGELDENERDYMHIAHIAELLE [L13Y], the protein stability index came to 2.59.

Regarding LYTAELDENERDLMHIAHIAELLE [G4A], the protein stability index amounted to 2.31.

In the case of LYTVELDENERDLMHIAHIAELLE [G4V], the protein stability index was found to be 1.44.

Turning to LYTYELDENERDLMHIAHIAELLE [G4Y], the protein stability index was 2.2.

Regarding LYTHELDENERDLMHIAHIAELLE [G4H], the protein stability index was found to be 1.99.

In the case of LYTSELDENERDLMHIAHIAELLE [G4S], the protein stability index worked out at 2.42.

On to LYTQELDENERDLMHIAHIAELLE [G4Q], for which the protein stability index was 2.7.

As to LYTWELDENERDLMHIAHIAELLE [G4W], the protein stability index turned out to be 1.5.

As to LYTCELDENERDLMHIAHIAELLE [G4C], the protein stability index came out at 1.87.

Take LYTEELDENERDLMHIAHIAELLE [G4E]: the protein stability index was 2.32.

Consider LYTTELDENERDLMHIAHIAELLE [G4T], for which the protein stability index was 2.25.

As for LYTGELDENERDLMHIAHIAELPE [L23P], the protein stability index amounted to 4.28.

As for LYTGELDENERDLMHIAHIAELTE [L23T], the protein stability index came to 3.99.

LYTGELDENERDLMHIAHIAELAE [L23A]: the protein stability index stood at 4.33.

For LYTGELDENERDLMHIAHIAELYE [L23Y], the protein stability index was found to be 3.31.

In the case of LYTGELDENERDLMHIAHIAELSE [L23S], the protein stability index worked out at 4.25.

For LYTGELDENERDLMHIAHIAELRE [L23R], the protein stability index amounted to 4.05.

Consider LYTGELDENERDLMHIAHIAELME [L23M], for which the protein stability index was 3.3.

Turning to LYTGELDENERDLMHIAHIAELVE [L23V], the protein stability index was 2.62.

Turning to LYTGELDENERDLMHIAHIAELEE [L23E], the protein stability index was 5.05.

Turning to LYTGELDENERDLMHIAHIAELIE [L23I], the protein stability index came to 2.66.

LYTGELDENERDLMHIAHIAELKE [L23K]: the protein stability index came out at 3.93.

The values above are taken from the supplement of paper PMC10567573.
